From patent US20240325555A1 (LANOVA MEDICINES, published 2024)
Where two headings read alike, the source gives them in different places.

B1: 79F5G5 (antibody, V domains shown)
VH: EVQLQQSGAELVRSGASVKLSCTASGFNIKDYYMHWVKQRPEQGLEWIGWIDPENGDTEYAPKFQGKATLTADTSSNTAYLQLSSLTFEDTAVYYCPHGGGLRVFDYWGQGTSLTVSS
VL: DVLMTQIPLSLSVSLGDQASISCRSSQSIVHSNGNTYLEWYLQKPGQSPKLLIYKVSNRFSGVPDRFSGSGSGTDFTLKISRVEAEDLGVYYCFQGSHVPWTFGGGTKLEIK
notes: Tested as chimeric antibody
B2: 94C4B9 (antibody, V domains shown)
VH: EVQLQQSGTVLARPGASVKMSCKASGYTFINYWMHWVKQRPGQGLEWIGAFYPGNSDTSYNQKFKDKAKLTAVTSTSTAYMEFSSLTNEDSAVYYCTRDFTAVPYFDYWGQGTTLTVSS
VL: DILMTQTPLSLPVSLGDQASISCRSSQSIVHSNGNTYLEWYLQKPGQSPKLLIYKVSNRFSGVPDRFSGSGSGTDFTLKISRVEAEDLGVYYCFQGSYVPLTFGVGTKLELK
notes: Tested as chimeric antibody
B3: 99B3E8 (antibody, V domains shown)
VH: EVQLQQSGTVLARPGTSVKMSCKASGYTFINYWMHWVRQRPGQGLEWIGAFYPGNSDTSYNQNFKDKAKLTAVTSTSTAYMEFSSLTNEDSAVYYCTRDFTAVPFFDYWGQGTTLTVSS
VL: DVLMTQTPLSLPVSLGDQASISCRSSQSIVHSNGNTYLEWYLQKPGQSPKLLIYKVSNRFSGVPDRFSGSGSGTDFTLKISRVEAEDLGVYYCFQGSYVPLTFGVGTKLELK
notes: Tested as chimeric antibody
B4: 90H4F8 (antibody, V domains shown)
VH: QVQLQQSGPELVKPGASVRISCKASGYTFTSYHMHWVKQRPGQGLEWIGWIYPGNVKNQSNEKFKGKATLTADKSSSTAYMHLSSLTSEDSAVYFCARSDITRAFFAYWGQGTLVTVSA
VL: DVLMTQTPLSLPVSLGDQASISCRSSQSIVHSNGNTYLEWYLQKPGQSPKLLIYKVSNRFSGVPDRFSGSGSGTDFTLKISRVEAEDLGVYYCFQGSHGPYTFGGGTKLEIK
notes: Tested as chimeric antibody
B5: 124H4D11.p2.z5 (antibody, V domains shown)
VH: QVQLVQSGAEVVKPGASVKVSCKASGFNIKDYYMHWVRQAPGQGLEWIGWIDPENDDTEYDPKFQGRVTMTADTSTSTVYMELSSLRSEDTAVYYCAARYYAFDYWGQGTMVTVSS
VL: DVLMTQSPLSLPVTLGQPASISCRSSQSIVHSNANTYLEWYLQRPGQSPKLLIYKVSNRFSGVPDRFSGSGSGTEFTLKISRVEAEDLGVYYCFQGSQVPPTFGGGTKLEIK
B6: 124H4D11.p2.z14 (antibody, V domains shown)
VH: QVPLVQSGAEVVKPGASVKLSCKASGFNIKDYYMHWVKQAPGQGLEWIGWIDPENDDTEYDPKFQGRATMTADTSTSTAYLELSSLRSEDTAVYYCNARYYAFDYWGQGTTVTVSS
VL: DVLMTQSPLSLPVTLGQPASISCRSSQSIVHSNANTYLEWYLQRPGQSPRLLIYKVSNRFSGVPDRFSGSGSGTDFTLKISRVEAEDVGVYYCFQGSQVPPTFGQGTKLEIK
B7: 124H4D11.p2.z15 (antibody, V domains shown)
VH: QVPLVQSGAEVVKPGASVKLSCKASGFNIKDYYMHWVKQAPGQGLEWIGWIDPENDDTEYDPKFQGRATMTADTSTSTAYLELSSLRSEDTAVYYCNARYYAFDYWGQGTTVTVSS
VL: DVLMTQSPLSLPVTLGQPASISCRSSQSIVHSNANTYLEWYLQRPGQSPKLLIYKVSNRFSGVPDRFSGSGSGTEFTLKISRVEAEDLGVYYCFQGSQVPPTFGGGTKLEIK
B8: 92E4E10 (antibody, V domains shown)
VH: EVQLQQSGTVLARPGASVKISCKASGYRFTSYWMHWVKQRPGQGLEWIGAIYPGNSDTTYNQKFKGKAKLTAVTSASTAYMDLSSLTNEDSAVYYCTSLLLRSPFDYWGQGTTLTVSS
VL: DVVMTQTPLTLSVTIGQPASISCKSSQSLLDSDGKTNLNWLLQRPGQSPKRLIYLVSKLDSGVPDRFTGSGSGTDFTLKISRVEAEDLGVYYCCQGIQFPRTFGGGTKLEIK
notes: Tested as chimeric antibody
B9: 82C7C7 (antibody, V domains shown)
VH: EVQLQQSGAELVKPGASIKLSCTPSGFNIKDTFIHWVKQRPEQGLEWIGRIDPANGNTRYDPKFQGKATITADTSSNTAYLQLISLTSEDTAVYYCAGGSISTVVPDYWGQGTTLTVSS
VL: DVVVTQTPLSLPVSLGDQASISCRSSQSLVHNNGNTYLHWYLQKPGQSPKLLIYKVSNRFSGVPDRFSGSGSGTDFTLKISRVEAEDLGVYFCSQSTHVPYTFGGGTKLEIK
notes: Tested as chimeric antibody
B10: 5D6B10.Z5 (antibody, V domains shown)
VH: QVQLVESGGGVVQPGRSLRLSCTVSGFSLTTYGIHWVRQSPGKGLEWLGVIWTGGTTDYNAAFISRLTISKDNSKSTLYFQMNSLRAEDTAVYYCARGPSSYWGQGTLVTVSS
VL: EIVMTQSPATLSVSPGERATVSCKASQNVDTNVVWYQQKPGQSPRALIHSASYRYSGVPDRFSGSGSGTDFTLTISSLQSEDFAVYFCQQYNNYPWTFGQGTKVEIK
B11: 5D6B10.Z2 (antibody, V domains shown)
VH: QVQLVESGGGVVQPGRSLRLSCAVSGFSLTTYGIHWVRQAPGKGLEWLAVIWTGGTTDYNAAFISRFTISKDNSKSTLYLQMNSLRAEDTAVYYCARGPSSYWGQGTLVTVSS
VL: EIVMTQSPATLSVSPGERATVSCKASQNVDTNVVWYQQKPGQSPRALIHSASYRYSGVPDRFSGSGSGTDFTLTISSLQSEDFAVYFCQQYNNYPWTFGQGTKVEIK
B12: 5D6B10.Z1 (antibody, V domains shown)
VH: QVQLVESGGGVVQPGRSLRLSCAVSGFSLTTYGIHWVRQAPGKGLEWLAVIWTGGTTDYNAAFISRFTISKDNSKSTLYLQMNSLRAEDTAVYYCARGPSSYWGQGTLVTVSS
VL: EIVMTQSPATLSVSPGERATLSCKASQNVDTNVVWYQQKPGQSPRALIYSASYRYSGVPARFSGSGSGTEFTLTISSLQSEDFAVYFCQQYNNYPWTFGQGTKVEIK
B13: 5D6B10.Z4 (antibody, V domains shown)
VH: QVQLVESGGGVVQPGRSLRLSCTVSGFSLTTYGIHWVRQSPGKGLEWLGVIWTGGTTDYNAAFISRLTISKDNSKSTLYFQMNSLRAEDTAVYYCARGPSSYWGQGTLVTVSS
VL: EIVMTQSPATLSVSPGERATLSCKASQNVDTNVVWYQQKPGQSPRALIYSASYRYSGVPARFSGSGSGTEFTLTISSLQSEDFAVYFCQQYNNYPWTFGQGTKVEIK
B14: 5D6B10.Z3 (antibody, V domains shown)
VH: QVQLVESGGGVVQPGRSLRLSCAVSGFSLTTYGIHWVRQAPGKGLEWLAVIWTGGTTDYNAAFISRFTISKDNSKSTLYLQMNSLRAEDTAVYYCARGPSSYWGQGTLVTVSS
VL: DIVMTQSPATLSVSPGERVTVSCKASQNVDTNVVWYQQKPGQSPRALIHSASYRYSGVPDRFSGSGSGTDFTLTISSVQSEDFAVYFCQQYNNYPWTFGGGTKLEIK

Key:
human LIV-1 [1] = target: T1, human LIV-1 (human, UniProt Q13433 29-755); assay: FACS, HEK293/H_LIV-1 cells
T1 construct: whole, on cells; also called H-LIV1
T1 sequence (looked up): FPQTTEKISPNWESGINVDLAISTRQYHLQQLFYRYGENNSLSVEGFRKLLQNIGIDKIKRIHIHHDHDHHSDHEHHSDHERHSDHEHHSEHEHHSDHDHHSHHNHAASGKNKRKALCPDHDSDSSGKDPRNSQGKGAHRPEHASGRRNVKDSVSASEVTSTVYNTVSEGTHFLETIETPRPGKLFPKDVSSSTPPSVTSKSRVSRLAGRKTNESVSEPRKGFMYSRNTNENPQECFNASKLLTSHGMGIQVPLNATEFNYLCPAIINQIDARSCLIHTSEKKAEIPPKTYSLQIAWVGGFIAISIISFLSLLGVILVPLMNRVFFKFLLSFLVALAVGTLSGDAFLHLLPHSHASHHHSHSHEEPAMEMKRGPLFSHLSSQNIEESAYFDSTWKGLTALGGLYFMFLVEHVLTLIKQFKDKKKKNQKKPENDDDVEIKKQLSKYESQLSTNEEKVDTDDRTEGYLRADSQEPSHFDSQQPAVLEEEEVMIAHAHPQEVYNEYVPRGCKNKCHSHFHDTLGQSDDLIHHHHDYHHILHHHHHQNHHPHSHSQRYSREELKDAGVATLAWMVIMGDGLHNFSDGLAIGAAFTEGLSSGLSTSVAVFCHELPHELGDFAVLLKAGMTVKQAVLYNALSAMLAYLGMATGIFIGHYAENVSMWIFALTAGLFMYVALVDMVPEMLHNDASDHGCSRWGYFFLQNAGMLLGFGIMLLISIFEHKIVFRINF
Method: (§1) In this example, cell based binding of chimeric Abs on human and cyno LIV-1 over-expressing HEK 293 cells were assessed using flow cytometry.
(§2) Briefly, cells were incubated with chimeric Abs (from 100 nM, 5 folds dilution, 8 points). After incubation at 4° C. for 60 minutes, the cells were washed with 2% FBS/PBS buffer twice, then stained with fluorescent conjugated secondary antibody at 4° C. for 30 minutes. After that the cells were washed twice and resuspended in 80 μL of 2% FBS/PBS buffer. Fluorescent signal of binding was detected using Agilent. The EC50 was calculated using the GraphPad Software (LaJolla, CA).

cynomolgus LIV-1 [2] = target: T2, cynomolgus LIV-1 (cynomolgus, UniProt A0A2K5WH46 30-741); assay: FACS, HEK293/Cyno_LIV-1 cells
Method: as §1, §2

human LIV-1 [3] = target: T1, human LIV-1; assay: FACS, HEK293/H_LIV-1 cells; remark: listed apart in the source
Method: In this example, cell based binding of humanized antibodies (hu Abs) on human LIV-1-expressing cells were assessed using flow cytometry.
Cell based binding of hu-Abs on human LIV-1 expressing cells were assessed using flow cytometry. Briefly, the HEK293/H_LIV-1 cells were incubated with hu-Abs (from 100 nM, 6 folds dilution, 8 points). After incubation at 4° C. for 60 minutes, the cells were washed with FACS buffer twice, then stained with fluorescent conjugated secondary antibody at 4° C. for 30 minutes. After that the cells were washed twice and analyzed by flow cytometry.

cynomolgus LIV-1 [4] = target: T2, cynomolgus LIV-1; assay: FACS, HEK293/Cyno_LIV-1 cells; remark: listed apart in the source
Target sequence in this assay (A0A2K5WH46 entry or part of it): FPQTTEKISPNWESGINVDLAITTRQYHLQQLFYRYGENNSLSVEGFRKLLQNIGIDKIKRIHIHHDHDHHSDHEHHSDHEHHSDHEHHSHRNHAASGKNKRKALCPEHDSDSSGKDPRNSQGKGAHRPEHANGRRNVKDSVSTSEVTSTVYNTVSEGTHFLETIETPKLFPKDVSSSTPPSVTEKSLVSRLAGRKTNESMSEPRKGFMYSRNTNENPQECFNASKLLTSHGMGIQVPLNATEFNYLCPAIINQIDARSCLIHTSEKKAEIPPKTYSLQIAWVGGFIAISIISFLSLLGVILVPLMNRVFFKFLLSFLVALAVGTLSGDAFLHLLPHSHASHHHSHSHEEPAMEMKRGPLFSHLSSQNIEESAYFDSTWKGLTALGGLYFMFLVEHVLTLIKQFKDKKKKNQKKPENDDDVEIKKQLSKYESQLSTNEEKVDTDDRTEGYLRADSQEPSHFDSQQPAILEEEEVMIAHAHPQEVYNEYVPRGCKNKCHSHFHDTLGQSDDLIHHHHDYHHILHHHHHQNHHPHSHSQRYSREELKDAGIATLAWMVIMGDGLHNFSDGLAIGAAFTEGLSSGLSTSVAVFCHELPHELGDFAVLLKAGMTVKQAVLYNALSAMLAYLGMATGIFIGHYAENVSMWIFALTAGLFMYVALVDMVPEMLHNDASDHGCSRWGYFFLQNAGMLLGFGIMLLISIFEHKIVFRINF

Binder | EC50 (human LIV-1 [1]) | Top (MFI) (human LIV-1 [1]) | EC50 (cynomolgus LIV-1 [2]) | Top (MFI) (cynomolgus LIV-1 [2]) | EC50 (human LIV-1 [3]) | Top (MFI) (human LIV-1 [3]) | EC50 (cynomolgus LIV-1 [4]) | Top (MFI) (cynomolgus LIV-1 [4])
B1 | 9.45 nM | 17500 MFI | 1.85 nM | 7020 MFI |  |  |  | 
B2 | 0.22 nM | 11600 MFI | 0.15 nM | 7860 MFI |  |  |  | 
B3 | 1.04 nM | 12600 MFI | 0.34 nM | 8240 MFI |  |  |  | 
B4 | 1.08 nM | 12200 MFI | 0.43 nM | 6880 MFI |  |  |  | 
B5 |  |  |  |  | 0.58 nM | 15600 MFI | 0.25 nM | 8070 MFI
B6 |  |  |  |  |  | 16800 MFI | 0.5 nM | 7670 MFI
B7 |  |  |  |  |  | 16800 MFI | 5.37 nM | 6910 MFI
B8 | 0.34 nM | 66200 MFI | 0.15 nM | 41300 MFI |  |  |  | 
B9 | 0.61 nM | 12300 MFI | 0.5 nM | 7130 MFI |  |  |  | 
B10 |  |  |  |  | 0.17 nM | 43400 MFI | 1.72 nM | 12400 MFI
B11 |  |  |  |  | 0.18 nM | 46700 MFI | 4.56 nM | 14900 MFI
B12 |  |  |  |  | 0.16 nM | 49800 MFI | 0.13 nM | 19600 MFI
B13 |  |  |  |  | 0.28 nM | 53000 MFI | 0.2 nM | 19800 MFI
B14 |  |  |  |  | 0.33 nM | 51200 MFI | 0.23 nM | 17200 MFI
